Test results from the RNAGym collection of RNA variant scans (doi:10.1073/pnas.2313332121).

B1: TPR t1 (parent)
chain: GACCAAUCUGCCCUCAGAGCUCGAGAACAUCUUCGGAUGCAGAGGAGGCAGGCUUCGGUGGCGCGAUAGCGCCAACGUCCUCAACCUCCAAUGCAUCCCACCACAUGAUGAUGCCUGAAGAGCCUUGGUUUUUUG

Variants of: B1
Test: polymerase ribozyme fitness, log enrichment relative to wild type (log ratio); higher = more active; in vitro selection for triplet polymerase activity
Outline: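 Each subunit of a heterodimeric triplet polymerase ribozyme was represented by a PCR-built, transcribed mutant library that underwent triplicate single-round in vitro selection with frozen incubation at −7 °C. Extended constructs were recovered by gel excision, streptavidin-bead capture and RT-PCR, and Illumina sequencing of input and output libraries kept genotypes with ≥10 input reads and ≥1 read per output. Fitness is the logarithm of genotype enrichment relative to wild-type enrichment, from inverse-variance-weighted replicate averages, with a logarithm base of 2.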

Variant	polymerase ribozyme fitness (log ratio)
U7A U14A C86U A90U	-3.61
U7A U14G G17C C82G C102A C114G	-5.18
U7A U32C	0.304
U7A U55G	-0.938
U7A U78C G93U G113C	-3.01
U7C A16C G52C G110A U130A	-5.74
U7C A16G C70A C94U C104U U112A	-1.32
U7C A16U C79U C85A	-4.35
U7C A24U G61U	-7.38
U7C A37U C73A	-0.516
U7C A41U C123G U131A	0.484
U7C A43U C72G A90G C124A U125G U133C	-0.0724
U7C A43U G52A C53U C85A U87A	-4.57
U7C A50U C82U	-0.98
U7C A66C G77C C88A	-2.34
U7C A74C	0.236
U7C A74G G110A A118U	-0.453
U7C C8A A27C C97U	-2.64
U7C C8G C79A G110A	-2.4
U7C C11A C22A	-5.95
U7C C11A G45C G58A	-0.0271
U7C C11G A100C G120A	1.21
U7C C11G C62A U96G	-1.18
U7C C11G C82U	0.131

Variant	polymerase ribozyme fitness (log ratio)
U7C C11U C73U G93U	-1.53
U7C C11U G69C	-1
U7C C12A	-0.242
U7C C12G	0.687
U7C C12U C22U G63A	-4.58
U7C C13A C72G U92C	-2.47
U7C C20U C62A A83C A119G	-1.83
U7C C28G G61U	-3.14
U7C C34U C49A A50C	-5.35
U7C C49U A50C C99U A100U G117U	-6.3
U7C C56A G71U A90C	-3.95
U7C C56A G135U	-1.85
U7C C56U C72U U130G	-0.275
U7C C62U G120A G128A	0.578
U7C C70U C101G	-2.79
U7C C72A A83G	-0.327
U7C C72G A84C	-0.576
U7C C72U	0.588
U7C G10C A83C C115U	-1.32
U7C G17A G63U A121C	-1.33
U7C G17C C115A	0.0409
U7C G39A C124U	0.776
U7C G44A	-0.534
U7C G45U G60A C82G C85G G117A	-3.81

Variant	polymerase ribozyme fitness (log ratio)
U7C G47A G48A A90C U112C	-1.65
U7C G47A G69U C72A C102G	-4.77
U7C G61A U81G U116G C124A	-2.26
U7C G107A U109A	-4.11
U7C G113A	0.595
U7C U9G A26G	-1.4
U7C U14G G48U C70G	-5.7
U7C U59A A83G U96C	-1.25
U7C U112C G113U G135A	-3.06
U7G A16C G42A	-4.17
U7G A18U	-0.713
U7G A27G G48C C86G	-0.81
U7G A29U G42A C53U C62U	-3.19
U7G A46U	-1.38
U7G A46U G93U	-2.2
U7G A50U C64U G117C	-4.92
U7G A84C U112C A119U	1.28
U7G A84U G127A	-0.135
U7G A91U	-1.77
U7G A111U	-1.87
U7G C8A G44A C123A	1.17
U7G C8U A29U C40A G48A	-2.66
U7G C8U A90U A121C	1.04
U7G C8U C70G	-1.52

Variant	polymerase ribozyme fitness (log ratio)
U7G C12G G58A C72U	0.394
U7G C12U C15A C22G C104U	-3.41
U7G C12U G36A C40A G45A G71U	-3.31
U7G C13A C49G U96C	-0.772
U7G C13G G57A	-0.156
U7G C20U	-1.37
U7G C22G A24G G48U	-5.74
U7G C22G G117U U130C	-2.69
U7G C22U A68C G93U C115U A121G	-5.51
U7G C28G U106A	-1.02
U7G C34U G69U C102U U106A	-0.632
U7G C56A	0.0403
U7G C56A G57A G93U	-1.03
U7G C72U C115U	0.671
U7G C72U G93C C115U	0.15
U7G C72U U81A A91C G107C U112C	-5.54
U7G C73A U92A	-2.35
U7G C73U U78A	0.634
U7G C79U U81C C86U C88A U125A	-4.3
U7G C80A C124A	-1.1
U7G C80U	0.145
U7G C88U A119G	1.51
U7G C98U	-0.713
U7G C104A C123G G128C	-3.67

Variant	polymerase ribozyme fitness (log ratio)
U7G C124A	1.74
U7G G10A A41G C79A C80A C115A	-3.95
U7G G36U U96C C104U	-3.09
U7G G45C G47A U59C	-1.08
U7G G47A C56A C70G	-5.1
U7G G47U G113C	-2.84
U7G G48U C70A C86G	-1.54
U7G G51C	-2.99
U7G G51C U55C C73A	-3.19
U7G G52A U106C G122U U131G	-0.951
U7G G60U	-0.565
U7G G63C	-0.0723
U7G G65U	-5.58
U7G G69U	0.479
U7G G71C	-0.641
U7G G71U C97G G120U U132C	-3.27
U7G G77A A83C	0.167
U7G G77U	0.185
U7G G110C C124A	-4.31
U7G U9A A27U C72U U87A U126A	-3.36
U7G U9A G10C A18G A29C	-4.02
U7G U9A G120C	1.99
U7G U32A A46U G77A C104A A105U C123G	-4.45
U7G U32A G39U G127C U130C	-5.02

Variant	polymerase ribozyme fitness (log ratio)
U7G U54A C102A U112A U131A	-0.106
U7G U55A G58A G63U C98A A105U G120A	-5.94
U7G U78C	0.451
U7G U96C	-0.0298
C8A A16U G120U U130G	1.06
C8A A18C C22G	-4.25
C8A A18C G60U	-1.62
C8A A18C U21G A68G	-6.09
C8A A18C U38G G61C C94U G110U C123U	-7.38
C8A A26G C56G C115U	-1.74
C8A A26U C94U C124G U125G G127U	-0.974
C8A A27G C56G U59G G113U	-4.68
C8A A29U G63A C88U A91U C123U	-3.81
C8A A41U G61A C86A	-1.24
C8A A41U G69U C86A	-0.0176
C8A A43C C70G	-6.43
C8A A46U	-1.5
C8A A83C A100C	-0.702
C8A A84G	0.231
C8A A91C G117C	-2.17
C8A A100C	-0.0614
C8A A100U U116G U133A G135U	-0.711
C8A A111C	0.0486
C8A A111U	-1.79

Variant	polymerase ribozyme fitness (log ratio)
C8A C11A C22A U32G U33C C34A C40G C72U A100U C115U	-6.9
C8A C11A C82A G93A	-0.542
C8A C11G A103C A119U G120A	-3.31
C8A C11G C13U C20A C49G	-3.3
C8A C11G C13U C20A G36A U78C	-3.05
C8A C11G C64A A103C A119U G120A	-6.83
C8A C12A C70U G77C U92A G127U U130G U131A	-6.59
C8A C12A G61C G69U G120A U129G	-1.45
C8A C12G U14C G77C C101A	-1.39
C8A C12G U54A	0.0252
C8A C12U A46C G93A C115A	0.651
C8A C13G C80U	-0.499
C8A C13G G60C A90U U109G A119U	-6.32
C8A C13G U14G G48A G77A G128C	-5.17
C8A C13U C49G	0.151
C8A C15A G52C C80A	-4.36
C8A C15U A46U A118G	-1.21
C8A C15U G47C G63A C98A C114U G117A U129G	-7.35
C8A C20G G45U C73U C123G	-5.63
C8A C20U G113U A118U	-0.316
C8A C28A C72U C123U	-2.54
C8A C28A G45A C56G G69U	-2.82
C8A C28G C53A	-2.01
